Assay results published in IntAct's records for PubMed 24937146.

B1: Microtubule protein alp7 (Schizosaccharomyces pombe (strain ATCC 38366 / 972)), Q9URY2 (parent)
chain: MSDIVSSSTDYSRRSPSSSSIGTNETDHTGFHEKRQGASSESLIPPAQRSSEESMPAPKLFPKLTSKPNPQLNLKDTLNKRVSDRLQALELNKSFDFSGTPRPMHPISHPLSQHKTPEFKHRKRNVESILTPKNPSLFSSSNAASQRGSLNTAPSNFAYSHSSSLQTSASSRPPVLSNGSFPRQTNTAPLNPPVHLKDNIRNSATPSTSQADIPTQYPINSTQKQQAKYEAEIEGYKAKLAGTYHEISVLQNTIVNVSGQLIAVNDQLQQLRSGKASTSPSTKDTNMRLVEGHNEETLALQRGKYTQEEVDKLIQERMEKVAEDLHAQYSAKHTQKINAFKANYARKYEATIQELQNQIGTAPNAPKISNSNWEEERRALKADNQTLQKQLEKAIQERQDMSDFLNNFKADMAKSDKLLMQQQSQQTGDLETLRLQLQALQEELRVEREERQQLIQMSEDLVIAMDQLNLEQKS
partner: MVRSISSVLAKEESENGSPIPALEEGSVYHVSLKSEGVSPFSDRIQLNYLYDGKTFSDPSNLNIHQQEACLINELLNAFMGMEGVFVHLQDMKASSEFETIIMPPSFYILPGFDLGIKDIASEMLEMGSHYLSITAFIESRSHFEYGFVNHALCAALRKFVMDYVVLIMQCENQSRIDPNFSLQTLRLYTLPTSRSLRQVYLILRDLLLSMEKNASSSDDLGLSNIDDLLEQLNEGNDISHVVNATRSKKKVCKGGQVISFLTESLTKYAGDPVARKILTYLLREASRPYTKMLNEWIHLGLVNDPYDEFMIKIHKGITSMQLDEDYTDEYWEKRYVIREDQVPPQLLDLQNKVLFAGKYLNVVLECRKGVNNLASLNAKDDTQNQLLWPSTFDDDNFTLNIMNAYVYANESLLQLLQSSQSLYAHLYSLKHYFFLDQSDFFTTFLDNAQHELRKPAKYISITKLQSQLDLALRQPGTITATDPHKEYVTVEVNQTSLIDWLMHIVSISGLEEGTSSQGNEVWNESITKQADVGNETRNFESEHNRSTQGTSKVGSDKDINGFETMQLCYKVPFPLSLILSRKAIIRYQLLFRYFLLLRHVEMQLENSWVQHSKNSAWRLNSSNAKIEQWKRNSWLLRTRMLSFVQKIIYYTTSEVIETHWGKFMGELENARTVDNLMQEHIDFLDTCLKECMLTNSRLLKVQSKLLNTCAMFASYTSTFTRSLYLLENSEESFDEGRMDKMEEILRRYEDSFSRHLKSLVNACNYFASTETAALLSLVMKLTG
B2: Microtubule protein alp7 (Schizosaccharomyces pombe (strain ATCC 38366 / 972)), Q9URY2 (parent)
chain: B1 chain
partner: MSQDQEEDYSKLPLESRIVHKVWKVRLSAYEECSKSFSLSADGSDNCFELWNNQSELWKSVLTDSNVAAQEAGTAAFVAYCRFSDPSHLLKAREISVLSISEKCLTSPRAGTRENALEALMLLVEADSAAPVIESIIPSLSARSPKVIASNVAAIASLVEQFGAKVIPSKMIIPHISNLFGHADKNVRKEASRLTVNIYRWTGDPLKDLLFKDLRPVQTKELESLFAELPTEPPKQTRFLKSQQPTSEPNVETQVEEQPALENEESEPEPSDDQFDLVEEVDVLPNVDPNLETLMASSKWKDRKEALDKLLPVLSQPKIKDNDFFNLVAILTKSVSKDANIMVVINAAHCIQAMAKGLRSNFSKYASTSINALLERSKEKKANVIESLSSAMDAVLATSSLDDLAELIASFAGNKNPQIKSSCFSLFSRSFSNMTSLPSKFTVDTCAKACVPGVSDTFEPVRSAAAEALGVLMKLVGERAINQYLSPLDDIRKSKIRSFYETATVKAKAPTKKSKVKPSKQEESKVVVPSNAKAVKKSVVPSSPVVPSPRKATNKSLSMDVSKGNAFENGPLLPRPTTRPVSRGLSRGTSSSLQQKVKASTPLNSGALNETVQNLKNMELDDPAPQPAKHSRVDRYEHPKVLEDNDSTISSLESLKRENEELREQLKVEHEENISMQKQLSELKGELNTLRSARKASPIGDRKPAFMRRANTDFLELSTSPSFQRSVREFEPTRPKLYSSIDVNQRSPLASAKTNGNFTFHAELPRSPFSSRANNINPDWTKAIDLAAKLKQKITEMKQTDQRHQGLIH
B3: Microtubule protein alp7 (Schizosaccharomyces pombe (strain ATCC 38366 / 972)), Q9URY2 (parent)
chain: B1 chain
partner: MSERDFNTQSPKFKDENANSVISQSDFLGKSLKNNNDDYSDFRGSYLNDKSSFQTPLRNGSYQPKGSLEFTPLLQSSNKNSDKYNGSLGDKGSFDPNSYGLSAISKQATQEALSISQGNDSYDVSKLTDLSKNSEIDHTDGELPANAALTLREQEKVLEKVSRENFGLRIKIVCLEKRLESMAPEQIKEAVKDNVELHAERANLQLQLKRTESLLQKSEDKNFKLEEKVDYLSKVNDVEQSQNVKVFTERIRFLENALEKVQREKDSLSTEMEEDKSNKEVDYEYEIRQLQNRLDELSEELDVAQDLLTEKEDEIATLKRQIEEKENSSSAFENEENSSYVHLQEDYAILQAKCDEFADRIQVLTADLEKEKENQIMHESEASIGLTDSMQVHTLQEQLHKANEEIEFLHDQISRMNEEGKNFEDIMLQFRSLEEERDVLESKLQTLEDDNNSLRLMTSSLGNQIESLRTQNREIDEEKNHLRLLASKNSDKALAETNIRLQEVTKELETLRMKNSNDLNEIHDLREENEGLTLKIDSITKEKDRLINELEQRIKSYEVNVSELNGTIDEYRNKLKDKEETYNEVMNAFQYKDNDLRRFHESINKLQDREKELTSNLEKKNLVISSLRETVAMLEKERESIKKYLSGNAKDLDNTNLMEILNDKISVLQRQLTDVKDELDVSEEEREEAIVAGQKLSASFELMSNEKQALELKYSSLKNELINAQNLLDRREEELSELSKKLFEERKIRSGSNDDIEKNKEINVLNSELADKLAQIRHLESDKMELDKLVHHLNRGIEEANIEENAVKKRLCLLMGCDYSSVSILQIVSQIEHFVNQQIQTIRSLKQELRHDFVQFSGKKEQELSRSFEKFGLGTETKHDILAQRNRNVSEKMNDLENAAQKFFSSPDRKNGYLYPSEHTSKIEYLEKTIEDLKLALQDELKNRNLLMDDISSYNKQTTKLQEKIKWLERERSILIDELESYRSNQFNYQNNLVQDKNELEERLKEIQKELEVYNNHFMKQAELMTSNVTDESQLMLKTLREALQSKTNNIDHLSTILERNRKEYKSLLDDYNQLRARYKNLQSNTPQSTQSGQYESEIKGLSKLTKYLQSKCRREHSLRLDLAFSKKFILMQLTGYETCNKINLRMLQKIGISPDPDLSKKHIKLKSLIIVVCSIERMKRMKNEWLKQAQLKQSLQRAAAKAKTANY

Variants of: B1
Conditions: with spc97_schpo alp4, Q9Y705
For MSDIVSSSTDYSRRSPSSSSIGTNETDHTGFHEKRQGASSESLIPPAQRSSEESMPAPKLFPKLTSKPNPQLNLKDTLNKRVSDRLQALELNKSFDFSGTPRPMHPISHPLSQHKTPEFKHRKRNVESILTPKNPSLFSSSNAASQRGSLNTAPSNFAYSHSSSLQTSASSRPPVLSNGSFPRQTNTAPLNPPVHLKDNIRNSATPSTSQADIPTQYPINSTQKQQAKYEAEIEGYKAKLAGTYHEISVLQNTIVNVSGQLIAVNDQLQQLRSGKASTSPSTKDTNMRLVEGHNEETLALQRGKYTQEEVDKLIQERMEKVAEDLHAQYSAKHTQKINAFAANAAAAAEATIQELQNQIGTAPNAPKISNSNWEEERRALKADNQTLQKQLEKAIQERQDMSDFLNNFKADMAKSDKLLMQQQSQQTGDLETLRLQLQALQEELRVEREERQQLIQMSEDLVIAMDQLNLEQKS [K341A;Y344A;R346A;K347A;Y348A], the “effect of a mutation on the interaction” value was “disrupting interaction”.

Variants of: B2
Conditions: with alp14_schpo alp14, O94534
For MSDIVSSSTDYSRRSPSSSSIGTNETDHTGFHEKRQGASSESLIPPAQRSSEESMPAPKLFPKLTSKPNPQLNLKDTLNKRVSDRLQALELNKSFDFSGTPRPMHPISHPLSQHKTPEFKHRKRNVESILTPKNPSLFSSSNAASQRGSLNTAPSNFAYSHSSSLQTSASSRPPVLSNGSFPRQTNTAPLNPPVHLKDNIRNSATPSTSQADIPTQYPINSTQKQQAKYEAEIEGYKAKLAGTYHEISVLQNTIVNVSGQLIAVNDQLQQLRSGKASTSPSTKDTNMRLVEGHNEETLALQRGKYTQEEVDKLIQERMEKVAEDLHAQYSAKHTQKINAFAANAAAAAEATIQELQNQIGTAPNAPKISNSNWEEERRALKADNQTLQKQLEKAIQERQDMSDFLNNFKADMAKSDKLLMQQQSQQTGDLETLRLQLQALQEELRVEREERQQLIQMSEDLVIAMDQLNLEQKS [K341A;Y344A;R346A;K347A;Y348A], the “effect of a mutation on the interaction” value was “disrupting interaction”.

Variants of: B3
Conditions: with pcp1_schpo pcp1, Q92351
For MSDIVSSSTDYSRRSPSSSSIGTNETDHTGFHEKRQGASSESLIPPAQRSSEESMPAPKLFPKLTSKPNPQLNLKDTLNKRVSDRLQALELNKSFDFSGTPRPMHPISHPLSQHKTPEFKHRKRNVESILTPKNPSLFSSSNAASQRGSLNTAPSNFAYSHSSSLQTSASSRPPVLSNGSFPRQTNTAPLNPPVHLKDNIRNSATPSTSQADIPTQYPINSTQKQQAKYEAEIEGYKAKLAGTYHEISVLQNTIVNVSGQLIAVNDQLQQLRSGKASTSPSTKDTNMRLVEGHNEETLALQRGKYTQEEVDKLIQERMEKVAEDLHAQYSAKHTQKINAFAANAAAAAEATIQELQNQIGTAPNAPKISNSNWEEERRALKADNQTLQKQLEKAIQERQDMSDFLNNFKADMAKSDKLLMQQQSQQTGDLETLRLQLQALQEELRVEREERQQLIQMSEDLVIAMDQLNLEQKS [K341A;Y344A;R346A;K347A;Y348A], the “effect of a mutation on the interaction” value was “disrupting interaction”.
